US8343490B2, “Monoclonal antibody SC104 and derivative thereof specifically binding to a sialyltetraosyl carbohydrate as a potential anti-tumor therapeutic agent” (Cephalon Australia Pty Ltd, priority 2004, dated 2013)

Tests used:
[1] = HPTLC immunostaining of C170 lipid extract fractions; assay type: binding
Protocol: • Lipid extraction from C170 tumour cells. A pellet of C170 cells (1 ml packed cell volume) was obtained by trypsinisation of a static adherent tissue culture. The pellet was washed in PBS and the excess buffer removed by aspiration following centrifugation, then stored at −80° C. The pellet was extracted with chloroform:methanol (3:1, v/v, 19 ml). The resultant emulsion was centrifuged at 8,000 rpm in a 50 ml solvent resistant (Tefzel) centrifuge tube for 15 min at 4° C. The supernatant was dried down using a rotary evaporator at 30° C. and resuspended in a small volume (˜1 ml) chloroform:methanol:0.5% CaCl2(aq) (50:40:10). • HPTLC analysis of lipid extracts The sample was multiply spotted onto a Merck HPTLC plate and developed in chloroform:methanol:0.5% CaCl2(aq) (50:40:10) as standard. The plates were dried and then placed in an iodine vapour tank. Bands were marked in pencil and the iodine allowed to evaporate off the plate over night. The plates were then immunostained in order to localise the antigen. • Immunostaining of developed HPTLC plates. For SC104 immunostaining, the plates were immersed in polyisobutyl methylmethacrylate (0.1% w/v solution) hexane:chloroform (9:1) for 15 seconds then allowed to dry. The plates were then blocked in 3% BSA in PBS for 1 hr at room temperature, followed by incubation in either test antibody solution (10 μg/ml) or BSA solution, for 1 hr at room temperature. The plates were then washed three times in PBS/Tween-20 (0.1%), before being incubated in rabbit anti-mouse HRP conjugate from Dako (1/250 in PBS) for 1 hr at room temperature. The plates were then washed three times in PBS/Tween −20(0.1%) and once in 10 mM Tris, 100 mM NaCl pH 7.0, 0.1% Tween and developed in Sigma-FAST […] reagent. • Chemical staining of developed HPTLC plates. Orcinol staining was employed to detect the presence of carbohydrate moieties. Developed HPTLC plates were allowed to dry before spraying with orcinol reagent until fully coated. The plates were dried in a stream of hot air and incubated at 100° C. for 15 minutes. Ninhydrin staining was used to detect molecules containing free amino groups. Developed HPTLC plate were first allowed to dry and then dipped in ninhydrin solution (0.25% ninhydrin w/v in acetone) until fully wetted. The plate was then allowed to develop at room temperature for several hours. Results
• Silica column fractionation of lipid extract. A gravity column (150 mm i.d.) was packed with a silica slurry in chloroform:methanol:0.5% CaCl2(aq) (50:40:10). The C170 extract, re-dissolved in ˜1 ml chloroform:methanol:0.5% CaCl2(aq) (50:40:10) was loaded onto the column and eluted using the same solvent conditions. Fractions were collected and analysed by HPTLC. […]

[2] = system: colorectal tumours; test: Binding to colorectal tumours (summary statement)
[3] = system: pan caspase in C170 cells; test: Pan caspase activation (FITC-FMK-vad, flow cytometry); assay type: cell-based; conditions: 30 μg/ml, up to 6 hrs; FIG. 17
Protocol: Pan caspase activation. 2×10^5 colorectal C170 cells were exposed to 30 μg/ml of SC104 for up to 6 hrs and pan caspase FITC-FMK-vad (caspACE FITC-vad-FMK, Promega, catalogue number G7462) employed to establish caspase activation. The cells were analysed by flow cytometry. Controls included a negative control murine antibody and a Fas antibody at 100 ng/ml.

[4] = system: C170 xenografts; test: C170 xenograft therapeutic model; assay type: in vivo, nude mice; conditions: administered therapeutically, after C170 xenograft implantation; FIG. 27
Protocol: Therapeutic model. The colorectal tumour cell line, C170 was maintained in serial passage in nude mice. For therapy the mice were sacrificed and the tumours excised. The tumour was finely minced and […] pieces were implanted, under anaesthetic, subcutaneously into 30 male mice which had been randomly allocated to 4 experimental groups.
Mice were explanted with 3 mm^3 pieces of C170 xenografts. […] On the same days mice were also injected intraperitonealy with 0.2 mg of SC104 mab. Control mice received either SC104 alone or control mouse IgG antibody with 5FU/leucovorin. Tumour size was measured by callipers and tumour cross sectional area calculated on days 12, 16, 19 and 23.

[5] = system: SC104 / C14 antigen; test: ELISA for homophilic binding; conditions: FIG. 23
Protocol: ELISA for homophilic binding. Flat flexi 96 well ELISA plates were coated with anti-mouse IgG Fc specific antibody or were coated with 3 μg/ml (100 μl/well) of C14 antigen in PBS and dried down overnight. Plates were washed 3 times with PBS prior to blocking with PBS/1% BSA for 1 hr at room temperature. SC104 antibody (0-100 μg/ml) was added on ice for 1 hr. After washing the plate 3 times in PBS/0.05% tween-20, biotinylated SC104 was added and incubated on ice for 30 minutes. Following a further 3 washes in PBS 0.05% tween-20 anti-mouse SA-HRP (1/1000; Dako, High Wycombe, UK) or goat anti-mouse Fc (1/1000: Dako, High Wycombe, UK) was added as appropriate and left on ice for 30 min. Plates were washed 5 times in PBS/0.05% tween-20 before adding 100 μl/well of TMB substrate and reading at 570 nm.

B1: SC104: mouse IgG1 monoclonal antibody specific for a sialyltetraosyl carbohydrate, raised by immunisation with colorectal cancer cell lines (antibody, V domains shown)
VH: DVQLQESGPDLVKPSQSLSLTCTVTGYSITSGYSWHWVRQFPGNKMEWMGHIHFSGRPTYNPSLSSRISITRDTSKNQFLLQLKFVTTEDTSTYFCARKGKGSDDGLNYWGQGISVTVSS
VL: ENVLTQSPVIMSASPGEKVTMTCSASSSLSYIHWYQQKSRTSPKLWIYDTSNLASGVPGRFSGSGSGNSYSLTISSMEAEDVATYYCFQGSEYPLTFGGGTKLEMT
binding after chemical removal of sialic acids (acid hydrolysis) ([1]; 0.05 M sulphuric acid, 80° C., 2 hrs): complete loss of SC104 binding | binding to asialo form ([1]; HPTLC immunostaining): does not bind to an asialo form | binding to sialylated glycolipid forms ([1]; HPTLC immunostaining, silica column fractions): bind to a mono, di and even polysialylated glycolipid | binding after ceramide glycanase removal of oligosaccharides ([1]; aqueous and organic phase, FIG. 8): loss of SC104 binding in both fractions | colorectal tumours bound [2]: 71% | pan caspase activation [3]: activates pan caspases after 5 hrs | inhibition of tumour growth [4]: neither 5FU nor SC104 alone significantly inhibited growth | binding to plates coated with purified glycoprotein expressing SC104 haptens ([5]; C14 antigen coated plates): bound stoichiometrically until 10 μg/ml and then bound exponentially beyond this concentration | homophilic binding in the absence of antigen ([5]; plate coated with unlabelled SC104, SC104 biotin detected): did not bind to itself
